Source: the supplement of paper PMC12764529
± gives the half width of the 95% confidence interval.

How the values were obtained:
[1] = folding stability dG unfold from chymotrypsin proteolysis; higher = more stable
Outline: (§1)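 Digests were run with trypsin and chymotrypsin at 11 concentrations in threefold dilutions, plus a no-protease condition, on designed mini-proteins in a PA-tagged cDNA display construct. The mini-proteins were under 80 residues, had no cysteine, and were kept only when AlphaFold2 dimer inter-PAE was above 15. After sequencing, Bayesian fitting of the counts gave K50, from which unfolding free energy was derived against a sequence-predicted unfolded-state K50 and a shared folded-state K50, per protease or combined.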

[2] = folding stability dG unfold from trypsin proteolysis; higher = more stable
Outline: as §1

[3] = folding stability dG unfold (combined trypsin and chymotrypsin); higher = more stable
Outline: as §1

For “SAGMLRELLDNPDVKRLEIVIFIPEEDLSEEDRERARERARELAERLRELLRERGYDVEIEVRIVRLPPSAG [r5_408_TrROS_Hall]”, the “folding stability dG unfold” value [1] was 13.5 ± 0.259 kJ/mol, the “folding stability dG unfold” value [2] was 14.6 ± 0.46 kJ/mol and the “folding stability dG unfold” value [3] was 14.2 ± 0.368 kJ/mol.
For “SAMEIVIEFESPEEAEKAIKEYVEKKGLKAVEIKMEFEPKWVEEKTPTGVKVTKEKYVAKVTVVTSKELSAG [r14_773_JUSTAS]”, the “folding stability dG unfold” value [1] was 8.48 ± 0.397 kJ/mol, the “folding stability dG unfold” value [2] was 1.91 ± 0.879 kJ/mol and the “folding stability dG unfold” value [3] was 5.37 ± 1.34 kJ/mol.
For “SAGGSAGGSAGSVTVTLSSDPDKTFTVTLPGGETVTFQPTPTNQVTVTVTSPTTPVTVTVSSAGGSAGGSAG [r3_334_JUSTAS]”, the “folding stability dG unfold” value [1] was 2.66 ± 0.351 kJ/mol, the “folding stability dG unfold” value [2] was 8.22 ± 0.31 kJ/mol and the “folding stability dG unfold” value [3] was 5.99 ± 0.402 kJ/mol.
With “SAGGMVVVAVEVDPVTKTATIVYAAPVPNLGGYVPIPAAAVAKRLTEELGLPDVKEVTVAQAAGDVPISAGG [r13_327_TrMRF]” the “folding stability dG unfold” value [1] was 2.54 ± 0.418 kJ/mol, the “folding stability dG unfold” value [2] was 1.79 ± 0.238 kJ/mol and the “folding stability dG unfold” value [3] was 2.42 ± 0.502 kJ/mol.
In the case of “SAGGSAGGSGMMLKIEIPVEDPGSEEKAKKIAEELAKKLGLSPKEVKIKIKVIPKLPPEEILNSAGGSAGGS [r12_1066_JUSTAS]”, the “folding stability dG unfold” value [1] is reported as 2.22 ± 0.46 kJ/mol, the “folding stability dG unfold” value [2] is reported as 1.97 ± 0.322 kJ/mol and the “folding stability dG unfold” value [3] is reported as 2.43 ± 0.92 kJ/mol.
With “SAGGSAGGSAGKIEIKVVKKTPNYVYYEIRFEETKKTIIVKAKSKEDAEEAAKKLLKELKSAGGSAGGSAGG [r11_848_TrROS_Hall]” the “folding stability dG unfold” value [1] was 12.1 ± 0.259 kJ/mol, the “folding stability dG unfold” value [2] was 9.66 ± 0.414 kJ/mol and the “folding stability dG unfold” value [3] was 11 ± 0.711 kJ/mol.
In the case of “SAGMEKKTLTVTHPDGSEATVEVYKNPETGKYVTLVHYPETGKYEVFDDNGNLIATFGNGSAADAFKAISAG [r5_757_TrMRF]”, the “folding stability dG unfold” value [1] is reported as 7.52 ± 0.418 kJ/mol, the “folding stability dG unfold” value [2] is reported as 1.57 ± 0.226 kJ/mol and the “folding stability dG unfold” value [3] is reported as 6 ± 0.544 kJ/mol.
For “SAGGSAGGMPVSVEIELTVPTSPDETPEEALERIREELAPLGVEEVTATPLPDGTVRFRITVPRSAGGSAGG [r6_882_JUSTAS]”, the “folding stability dG unfold” value [1] was 2.11 ± 0.837 kJ/mol, the “folding stability dG unfold” value [2] was 6.01 ± 0.201 kJ/mol and the “folding stability dG unfold” value [3] was 4.02 ± 0.544 kJ/mol.
For “SMVVERDPDGVLRVYASPEEAERIVAELKAAGLDARVEAFDPETGVWVIPVRPVPPAGLEPTPENQALNRVS [r1_78_JUSTAS]”, the “folding stability dG unfold” value [1] was 5.15 ± 0.305 kJ/mol, the “folding stability dG unfold” value [2] was 2.1 ± 0.121 kJ/mol and the “folding stability dG unfold” value [3] was 4.03 ± 0.297 kJ/mol.
For “SAGGAVVTPETEGDRTFVTTTDPESGSRTVTVTTYDPTTNTATTTTYFVPPDGVPTRVATTTTPLPPTSAGG [r13_768_JUSTAS]”, the “folding stability dG unfold” value [1] was 6.23 ± 0.406 kJ/mol, the “folding stability dG unfold” value [2] was 5.04 ± 0.322 kJ/mol and the “folding stability dG unfold” value [3] was 6.03 ± 0.544 kJ/mol.
For “SAMTLTLTVPPGAKVRVRITNENGETTEIEVEPGETVTITLPAGSTVRVEVEVVDPDGRKRTETFTLKPSAG [r14_568_TrROS_Hall]”, the “folding stability dG unfold” value [1] was 13.5 ± 0.293 kJ/mol, the “folding stability dG unfold” value [2] was 14.5 ± 0.46 kJ/mol and the “folding stability dG unfold” value [3] was 13.7 ± 0.628 kJ/mol.
For “SAGGLGTDSTVPTLTLSVPVLVPTADGSPRELTVRVTIRAPVRLNPPTGELEIGDVEVSVEVFDPSLLSAGG [r13_312_TrMRF]”, the “folding stability dG unfold” value [1] was 15.6 ± 0.46 kJ/mol, the “folding stability dG unfold” value [2] was 12.7 ± 0.46 kJ/mol and the “folding stability dG unfold” value [3] was 14.1 ± 0.544 kJ/mol.
In the case of “SMKKNTLTLTVKVKVTVTVVKKKKDGKEEVVKKETVEVTVKVTFLSKEELEKLKKELEKLKKELEELKKKSA [r9_1192_TrROS_Hall]”, the “folding stability dG unfold” value [1] is reported as 19.7 ± 1.13 kJ/mol, the “folding stability dG unfold” value [2] is reported as 11.4 ± 1.13 kJ/mol and the “folding stability dG unfold” value [3] is reported as 14.2 ± 3.14 kJ/mol.
With “SAGGSAGGSPANIKITTTLDTETGYLTIVAYNPATGKVTVLTAKIYGNVPHIDGLEALFGALGSAGGSAGGS [r20_131_TrMRF]” the “folding stability dG unfold” value [1] was 12.6 ± 0.326 kJ/mol, the “folding stability dG unfold” value [2] was 8.67 ± 0.36 kJ/mol and the “folding stability dG unfold” value [3] was 11.3 ± 0.753 kJ/mol.
In the case of “SAGGSAPLPAREFADEIMKKSPGPVEITVVFKEPDEYYVAKITMNPNNGKPQIKVERIPPEDLKKLSAGGSA [r15_156_TrROS]”, the “folding stability dG unfold” value [1] is reported as 2.62 ± 0.962 kJ/mol, the “folding stability dG unfold” value [2] is reported as 1.76 ± 0.272 kJ/mol and the “folding stability dG unfold” value [3] is reported as 1.95 ± 0.962 kJ/mol.
With “SEKPLVTLELELVVETEEQARAAVEALLAALPEEEIVDIRVEVEEVDVFENGELVGRRRRVRVTIVVRRPSA [r9_605_TrROS_Hall]” the “folding stability dG unfold” value [1] was 17 ± 1.09 kJ/mol, the “folding stability dG unfold” value [2] was 18.1 ± 1 kJ/mol and the “folding stability dG unfold” value [3] was 18.5 ± 1.05 kJ/mol.
With “SAGGSAGGSEKTIKITIKVKVKKKVTVKNKNGEKKTFEFEEKTYTLTTIKFDSKEDALKALKKSAGGSAGGS [r12_452_TrROS_Hall]” the “folding stability dG unfold” value [1] was 10.4 ± 0.305 kJ/mol, the “folding stability dG unfold” value [2] was 5.67 ± 0.184 kJ/mol and the “folding stability dG unfold” value [3] was 9.06 ± 0.92 kJ/mol.
For “SAGGSAGGMTVDPENPVVYYPGSDGKAQTYPLSPDSSLKLPDGKVVTVTPVPEGSVSVSVSPVESAGGSAGG [r6_296_JUSTAS]”, the “folding stability dG unfold” value [1] was 5.227 ± 0.046 kJ/mol, the “folding stability dG unfold” value [2] was 2.39 ± 0.126 kJ/mol and the “folding stability dG unfold” value [3] was 4.29 ± 0.151 kJ/mol.
In the case of “SAGGIDLDDLPPGDIFIFIKIKMEPVKVDDPDGKEYNRMEIEIFIFRFDPPNGKIQFEPIPMEFYIRSAGGS [r8_486_TrROS]”, the “folding stability dG unfold” value [1] is reported as 13.7 ± 0.268 kJ/mol, the “folding stability dG unfold” value [2] is reported as 11.8 ± 1.05 kJ/mol and the “folding stability dG unfold” value [3] is reported as 13.3 ± 0.962 kJ/mol.
In the case of “SAGEKEFEIVEVKVNKETNEVYFLVRDKEKNRLIKVHSNGTVEIYDLKDPGKKITINMSLEELLALLKKSAG [r5_491_TrROS_Hall]”, the “folding stability dG unfold” value [1] is reported as 17.8 ± 0.795 kJ/mol, the “folding stability dG unfold” value [2] is reported as 10.4 ± 0.669 kJ/mol and the “folding stability dG unfold” value [3] is reported as 17.1 ± 0.795 kJ/mol.
In the case of “SAGGSDNKPFRIEPTGVDSVEANPDGMVEIEWRFRLPNGYVLTWRETINPKNGKPSIEPTLVPPGESAGGSA [r2_321_TrROS]”, the “folding stability dG unfold” value [1] is reported as 3.02 ± 0.753 kJ/mol, the “folding stability dG unfold” value [2] is reported as 3.41 ± 0.331 kJ/mol and the “folding stability dG unfold” value [3] is reported as 3.78 ± 0.356 kJ/mol.
